What was measured:
Aβ1-42 oligomers = Aβ1-42 oligomers (Homo sapiens, UniProt P05067); experiment: Surface plasmon resonance, Aβ1-42 monomers, oligomers and fibrils immobilized on a CM5 biosensor chip; format: binding
Procedure: L3 is shown in section A and D3 is shown in section B of the figure. […] Aβ1-42 monomers (dashed lines), oligomers (solid lines) and fibrils (dotted line) were immobilized on a CM5 biosensor chip. Interaction analyses were carried out by means of surface […]. RU: resonance units. In each case, 25 μl peptide solution (100 μg/ml) was injected. […] The same results are also obtained for Aβ1-40 oligomers.

Aβ1-42 = Aβ1-42 (Homo sapiens, UniProt P05067); experiment: Density gradient centrifugation (iodixanol gradient 5-50%) of Aβ-peptide mixtures, SDS-PAGE and silver staining; format: biochemical; conditions: 125 μM Aβ and 125 mM peptide
Procedure: L3 precipitates Aβ oligomers from complex mixtures of different Aβ forms. The size distributions of Aβ in solution and in Aβ-peptide mixtures were examined by way of sedimentation analysis on an iodixanol gradient (5-50%). The mixtures contained 125 μM Aβ and 125 mM peptide, respectively. After centrifugation, 14 fractions of 140 μl each were obtained from the surface by sequential pipetting and analyzed by means of denatured polyacrylamide gel electrophoresis SDS-PAGE and subsequent silver staining. […] Large aggregates form, which in subsequent experiments are described as amorphous, not fibrillary and not amyloidogenic.

[1] = target: Aβ1-42 oligomeric particles (Homo sapiens, UniProt P05067); experiment: Dynamic light scattering, hydrodynamic radius of Aβ1-42 particles; format: biochemical; conditions: 5 μM Aβ1-42 oligomeric particles, 50 μM L3, immediately and after 20 minutes, 25° C.
Procedure: Dynamic light scattering is used to determine the hydrodynamic radius of particles in solution or suspension. A 5 μM sample of Aβ1-42 oligomeric particles was diluted by adding a 50 μM L3 sample on the one hand, and buffer (50 mM sodium phosphate, 100 mM NaCl, pH 7.4) on the other hand. The hydrodynamic radius of the Aβ1-42 particles with and without L3 was measured using a DynaPro light scattering system, immediately after the sample was prepared and after 20 minutes. A 655.6 nm laser (13 mW/58% laser intensity) was used. The measuring time was 2 seconds, and the measurement temperature was 25° C. Spherical sedimented particles were assumed for calculating the hydrodynamic radius.

Aβ [2] = target: T1, Aβ (Homo sapiens, UniProt P05067); experiment: Thioflavin T test of Aβ aggregation; format: biochemical; conditions: 25 μM Aβ with 1 mM L3
T1 construct: joint stock solutions made of 25 μM Aβ (light bars) and 25 μM Aβ with 1 mM L3
Procedure: (§1) Both tests were prepared from joint stock solutions made of 25 μM Aβ (light bars) and 25 μM Aβ with 1 mM L3 (dark bars). In the ThT test, 5 μl of the solutions was mixed with 200 μl ThT solution (5 μM ThT; 50 mM glycerin pH 8.5) and measured at λex 440 nm and λem=490 nm in the fluorescence spectrometer. ThT is a dye which, when bound to regular fibrils, has higher fluorescence and therefore serves as a measure of the fibrillation. In the turbidimetric test, the clouding of the solution was measured in the UV/VIS spectrometer as a measure of the aggregation as absorption at 355 nm.

Aβ [3] = target: T1, Aβ; experiment: Turbidimetric test of Aβ aggregation (absorption at 355 nm); format: biochemical; conditions: 25 μM Aβ with 1 mM L3
Procedure: as §1

Aβ [4] = target: T1, Aβ; experiment: Seeding test: amyloidogenic properties of Aβ-L3 aggregates by ThT fluorescence over time; format: biochemical; conditions: seeds 20% v/v added to freshly prepared Aβ, compared with Aβ without seeds
Procedure: Amyloidogenic seeds are particles which act as “nuclei” and expedite the aggregation process. With regard to the aggregation of Aβ, it is known that existing Aβ oligomers/seeds considerably expedite the aggregation process of monomers. For the experiment, seeds were produced which consisted of Aβ (triangles) and such, which consisted of Aβ and L3 (squares). After incubating Aβ and A-L3 mixtures for 5 days, the seeds were centrifuged off and washed. The seeds (20% v/v) were added to freshly prepared Aβ in the ThT test. Aβ without seeds (rhombi) were measured for control purposes. […] This is an indication that Aβ-D3 aggregates no longer have amyloid structures.

[5] = SPR, 25 μl peptide solution (100 μg/ml) injected

T1 sequence (P05067 672-713 limits assumed): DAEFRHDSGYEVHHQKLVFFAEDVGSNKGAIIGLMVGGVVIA
Chain of Aβ1-42 oligomers (P05067 672-713 limits assumed): as above
Chain of Aβ1-42 (P05067 672-713 limits assumed): as above
Chain of Aβ1-42 oligomeric particles (P05067 672-713 limits assumed): as above

L3: L3 peptide, which according to the invention binds to Aβ oligomers (LRMMLQIKRIPR)
binding to Aβ1-42 oligomers (Aβ1-42 oligomers; [5]): very clear binding | maximum resonance (RU) compared with D3 (Aβ1-42 oligomers; [5]): higher maximum resonance than D3 | binding strength compared with D3 (Aβ1-42 oligomers; SPR, FIG. 1): stronger binding than D3 | binding to the Aβ peptide compared with peptide D3 (Aβ1-42 oligomers; general statement): better binding | content of Aβ oligomers after density gradient centrifugation (Aβ1-42): significantly reduce | reduction of Aβ oligomer content compared with D3 (Aβ1-42; at the analyzed time): to a greater degree than D3 | formation of large Aβ aggregates (hydrodynamic radius) [1]: favorable in terms of the fast formation of large Aβ aggregates | ThT test result of the Aβ aggregates (fibrillary structure) (Aβ [2]): negative | development of Aβ aggregates (clouding) (Aβ [3]): fast development of large Aβ aggregates | acceleration of Aβ aggregation by seeds composed of Aβ and L3 (Aβ [4]): do not result in any accelerated aggregation
